Measured values from the supplement of paper PMC9732359.
± gives the uncertainty stated by the source.

Assay: protein stability index of a GFP-peptide fusion (yeast GPS) (PSI 1-4); higher = more stable; sorted into four equal gates, so the index is relative within each strain
Procedure, shortened: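 Yeast carrying a pooled library were grown to mid-log phase in leucine-free medium. Each library plasmid expresses Cherry and has a tiled 17-residue yeast protein peptide fused downstream of GFP. Cells were sorted into four equal gates by GFP/Cherry ratio, and plasmids from each gate were PCR-amplified, Illumina-sequenced and assigned to strains by barcode. Summing, across gates, the read frequency times the gate number gave each peptide's protein stability index.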

| Sequence | protein stability index (doa10∆) | protein stability index (pdr5∆) | protein stability index (san1∆) | protein stability index (ubr1∆) |
| --- | --- | --- | --- | --- |
| TNILTKVDINADSAVNR [PRP28] | 3.37 ± 0.062 | 3.4 ± 0.074 | 3.3 ± 0.055 | 3.31 ± 0.059 |
| TNKDNKAELIKPIQNGE [ARP9] | 3.34 ± 0.071 | 3.14 ± 0.083 | 3.4 ± 0.046 | 3.16 ± 0.072 |
| TNLGQPHSLATKTTGKC [RPS2] | 2.44 ± 0.13 | 2.69 ± 0.13 | 2.38 ± 0.088 | 2.5 ± 0.11 |
| TNLSGGEKTLSSLALVF [SMC4] | 3.34 ± 0.083 | 3.2 ± 0.097 | 3.04 ± 0.25 | 3.37 ± 0.054 |
| TNNMEKIIEDLRQKHEF [SMC2] | 3.12 ± 0.055 | 2.9 ± 0.046 | 3.13 ± 0.033 | 3.15 ± 0.033 |
| TNSHLPAGKQVEISLVN [FAS1] | 3.48 ± 0.14 | 3.37 ± 0.13 | 3.36 ± 0.069 | 3.12 ± 0.084 |
| TNSTYNPASATDNMSGR [YJL039C/NUP192] | 2.71 ± 0.058 | 2.73 ± 0.063 | 2.47 ± 0.054 | 2.56 ± 0.052 |
| TNVEDPLAKKQTVRLIK [SIR2] | 2.82 ± 0.077 | 3.08 ± 0.067 | 2.77 ± 0.056 | 2.96 ± 0.06 |
| TNVQRIAAYIRRHRNPD [SMC1] | 3.1 ± 0.24 | 3.32 ± 0.22 | 3.29 ± 0.18 | 3.04 ± 0.16 |
| TPAMIPYPGSPMHSIMP [DSN1] | 2.8 ± 0.037 | 2.67 ± 0.034 | 2.88 ± 0.036 | 2.846 ± 0.025 |
| TPKITAAEKSFKPPKNK [SEC65] | 2.9 ± 0.28 | 3.14 ± 0.2 | 3.04 ± 0.12 | 3.14 ± 0.12 |
| TPSQIGVLLRDAHGVTQ [RPS13] | 1.74 ± 0.083 | 1.81 ± 0.15 | 1.91 ± 0.13 | 2.05 ± 0.037 |
| TPSTETAASVFKELCYE [PRE3] | 1.92 ± 0.048 | 2.1 ± 0.052 | 2.29 ± 0.062 | 1.84 ± 0.038 |
| TQATSEDGTSASFQIVE [RPC19] | 2.88 ± 0.073 | 3.18 ± 0.079 | 3.05 ± 0.051 | 3.12 ± 0.068 |
| TQGGNVNLDNTAVGKAA [RPT5] | 3.11 ± 0.053 | 3.28 ± 0.052 | 3.277 ± 0.032 | 3.17 ± 0.038 |
| TQKRTHVLKKNPLKNKQ [RPL4A] | – | 2.52 ± 0.22 | – | 2.99 ± 0.14 |
| TQNSRHYMVHEALNLLK [LIN1] | 3.03 ± 0.086 | 2.98 ± 0.075 | 2.76 ± 0.077 | 3.07 ± 0.064 |
| TQTVSGTPPMLHQRTHK [DSN1] | 2.97 ± 0.12 | 3.11 ± 0.097 | 2.89 ± 0.16 | 2.98 ± 0.088 |
| TQVALNESEKDQWLEEY [UBP6] | 3 ± 0.1 | 2.55 ± 0.07 | 2.66 ± 0.077 | 2.88 ± 0.055 |
| TRHQNTIHAKRKIVFRC [RPN4] | 2.75 ± 0.052 | 2.85 ± 0.059 | 2.8 ± 0.07 | 2.64 ± 0.052 |
| TRKAARPQKLRASLVPG [RPL6A] | 1.47 ± 0.21 | 1.5 ± 0.12 | – | 2 ± 0.12 |
| TRKAMLDPLEVHMLDFP [PRP8] | 2.84 ± 0.061 | 2.94 ± 0.06 | 3.03 ± 0.054 | 3 ± 0.048 |
| TRQSSRNFDTHENYIQD [MCD1] | 2.92 ± 0.098 | 3.03 ± 0.082 | 2.84 ± 0.08 | 2.69 ± 0.056 |
| TSALSELSGLISSAKLD [QCR2] | 1.69 ± 0.1 | 2 ± 0.083 | 1.7 ± 0.13 | 1.94 ± 0.11 |
| TSGKVELPKKLLNLPPF [SRB8] | 2.57 ± 0.27 | 3.1 ± 0.25 | 2.67 ± 0.26 | 2.55 ± 0.14 |
| TSKSFSKLLYDDVTCDK [SIN4] | 3.01 ± 0.077 | 2.9 ± 0.051 | 2.7 ± 0.054 | 3.16 ± 0.039 |
